Source: patent US20260137822A1 (ABDERA THERAPEUTICS, published 2026)

T1: human DLL3 (antigen of Example 30) (human, UniProt Q9NYJ7 27-492, limits assumed)
T1 construct: also called hDLL3
T1 sequence (looked up): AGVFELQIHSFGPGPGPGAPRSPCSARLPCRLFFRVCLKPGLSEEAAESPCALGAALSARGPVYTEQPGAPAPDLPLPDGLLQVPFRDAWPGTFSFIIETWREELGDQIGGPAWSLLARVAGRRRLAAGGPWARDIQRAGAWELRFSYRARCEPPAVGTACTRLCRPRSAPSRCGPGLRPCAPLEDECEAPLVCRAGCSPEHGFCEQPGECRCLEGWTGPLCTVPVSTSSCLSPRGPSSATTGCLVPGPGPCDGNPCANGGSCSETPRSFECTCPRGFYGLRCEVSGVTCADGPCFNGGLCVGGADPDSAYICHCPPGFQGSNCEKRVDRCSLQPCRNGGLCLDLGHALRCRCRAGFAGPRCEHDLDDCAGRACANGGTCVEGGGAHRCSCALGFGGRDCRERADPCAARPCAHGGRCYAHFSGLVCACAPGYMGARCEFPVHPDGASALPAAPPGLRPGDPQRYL

T2: FcγRIIa (R167) (biotinylated, Acro Biosystems) (UniProt P12318 36-218, biotinylated)
T2 sequence (looked up): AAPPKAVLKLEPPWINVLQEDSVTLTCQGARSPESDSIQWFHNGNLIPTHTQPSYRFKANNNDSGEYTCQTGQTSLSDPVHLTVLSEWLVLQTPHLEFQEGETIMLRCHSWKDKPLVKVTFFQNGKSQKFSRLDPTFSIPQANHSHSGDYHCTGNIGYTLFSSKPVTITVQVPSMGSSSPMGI

T3: FcγRIIa (H167) (biotinylated, Acro Biosystems) (UniProt P12318 36-218, biotinylated)
T3 sequence (looked up): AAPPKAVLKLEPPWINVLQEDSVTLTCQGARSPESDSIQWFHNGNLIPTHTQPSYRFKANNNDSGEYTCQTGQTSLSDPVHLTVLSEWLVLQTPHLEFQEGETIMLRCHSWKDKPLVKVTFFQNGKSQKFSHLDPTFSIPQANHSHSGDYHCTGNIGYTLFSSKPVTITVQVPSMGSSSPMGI

T4: FcγRIIb/c (biotinylated, Acro Biosystems) (UniProt P31994 46-217, biotinylated)
T4 sequence (looked up): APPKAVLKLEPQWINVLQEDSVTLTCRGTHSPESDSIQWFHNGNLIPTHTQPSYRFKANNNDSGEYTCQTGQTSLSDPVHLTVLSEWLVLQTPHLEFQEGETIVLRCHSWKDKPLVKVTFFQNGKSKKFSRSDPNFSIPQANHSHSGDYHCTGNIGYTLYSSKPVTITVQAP


How the values were obtained:
[1] = biological target: T5, FOLR1 on cells (OVCAR3, OV-90) (UniProt P15328 25-234); assay: flow cytometry on FOLR1 expressing OV-90 cells, Geomeans RL1-H against Conc (nM); linker not printed on the sheet, taken as the (GGS)3 parent of the conjugate [bottom panel]
T5 construct: whole, on cells; also called FOLR1-positive OVCAR3 cells; FOLR1 expressing OV-90 cells
T5 sequence (P15328 25-234): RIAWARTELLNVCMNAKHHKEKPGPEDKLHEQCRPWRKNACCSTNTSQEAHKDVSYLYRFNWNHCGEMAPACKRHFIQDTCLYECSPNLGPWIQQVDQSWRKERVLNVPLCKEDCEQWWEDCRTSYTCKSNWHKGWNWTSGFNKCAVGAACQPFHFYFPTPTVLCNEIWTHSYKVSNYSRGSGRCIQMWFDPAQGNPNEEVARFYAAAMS

[2] = biological target: T1, human DLL3 (antigen of Example 30); assay: BLI (Octet), tetramer captured on AHC sensor, antigen as analyte
[3] = biological target: T6, murine FOLR1 (antigen of the Octet assay) (murine, UniProt P35846 25-232, limits assumed); assay: as above
T6 construct: also called mFOLR1
T6 sequence (P35846 25-232 limits assumed): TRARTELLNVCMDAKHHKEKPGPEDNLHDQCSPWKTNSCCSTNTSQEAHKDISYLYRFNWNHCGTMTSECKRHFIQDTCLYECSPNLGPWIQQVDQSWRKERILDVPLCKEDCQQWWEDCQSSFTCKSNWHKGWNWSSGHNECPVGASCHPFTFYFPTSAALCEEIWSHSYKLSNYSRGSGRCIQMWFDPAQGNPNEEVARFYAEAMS

[4] = biological target: T5, FOLR1 on cells (OVCAR3, OV-90); assay: binding to FOLR1-positive OVCAR3 cells
[5] = biological target: T7, human FOLR1 (antigen of the Octet assay) (human, UniProt P15328 25-234, limits assumed); assay: BLI (Octet), tetramer captured on AHC sensor, antigen as analyte
T7 construct: also called hFOLR1
T7 sequence (P15328 25-234 limits assumed): as the sequence (P15328 25-234) above

[6] = biological target: biotinylated hFcRn (Sino Biological, Cat #: CT071-H27H-B) (human, UniProt P55899 24-297; P61769 21-119, biotinylated); assay: BLI (Octet), biotinylated hFcRn on SA sensor, pH 6.0, 2:1 heterogeneous ligand model
[7] = biological target: T2, FcγRIIa (R167) (biotinylated, Acro …); assay: BLI (Octet), biotinylated FcγR on SA sensor, steady state analysis
[8] = biological target: FcγRIIIa (F176) (biotinylated, Acro Biosystems) (UniProt P08637 17-208, biotinylated); assay: BLI, biotinylated FcγR on SA sensor
Chain of FcγRIIIa (F176) (biotinylated, Acro Biosystems) (P08637 17-208 limits assumed): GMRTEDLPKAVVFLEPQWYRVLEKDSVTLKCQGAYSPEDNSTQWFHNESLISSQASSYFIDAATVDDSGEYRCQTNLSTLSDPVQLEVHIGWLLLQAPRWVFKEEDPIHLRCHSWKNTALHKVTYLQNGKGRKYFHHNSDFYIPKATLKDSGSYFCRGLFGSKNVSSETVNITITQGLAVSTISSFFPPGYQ

[9] = biological target: T3, FcγRIIa (H167) (biotinylated, Acro …); assay: BLI, biotinylated FcγR on SA sensor
[10] = biological target: FcγRIIIa (V176) (biotinylated, Acro Biosystems) (UniProt P08637 17-208, biotinylated); assay: BLI, biotinylated FcγR on SA sensor
Chain of FcγRIIIa (V176) (biotinylated, Acro Biosystems) (P08637 17-208 F176V limits assumed): as the sequence (P08637 17-208 limits assumed) above, with F160V counted along it

[11] = biological target: T4, FcγRIIb/c (biotinylated, Acro …); assay: BLI (Octet), biotinylated FcγR on SA sensor, steady state analysis
[12] = biological target: FcγRI (biotinylated, Acro Biosystems) (UniProt P12314 16-288, biotinylated); assay: BLI, biotinylated FcγR on SA sensor
Chain of FcγRI (biotinylated, Acro Biosystems) (P12314 16-288 limits assumed): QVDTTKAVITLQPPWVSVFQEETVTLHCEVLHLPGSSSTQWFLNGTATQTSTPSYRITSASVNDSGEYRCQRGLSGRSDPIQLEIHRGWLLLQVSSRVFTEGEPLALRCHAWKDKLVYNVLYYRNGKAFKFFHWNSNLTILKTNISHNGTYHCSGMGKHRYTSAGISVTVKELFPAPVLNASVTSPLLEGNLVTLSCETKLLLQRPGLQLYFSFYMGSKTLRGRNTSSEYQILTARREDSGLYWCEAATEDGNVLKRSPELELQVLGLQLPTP

Binder | EC50 (read off the curve) [1] [nM] | binding result [2] | binding result [3] | binding result [4] | binding result [5] | Kd [6] [nM] | Kd [7] [nM] | binding result [8] | binding result [9] | binding result [10] | Kd [11] [nM] | binding result [12]
H133 (Fc fusion, not shown: hinge; copies: 2 + 2) chain (part 1 of 2): QVQLQESGGGSVQAGGSLKLTCAASGYIFNSCGMGWYRQSPGRERELVSRISGDGDTWHKESVKGRFTISQDNVKKTLYLQMNSLKPEDTAVYFCAVCYNLETYWGQGTQVTVSS chain (part 2 of 2): APEAEGAPSVFLFPPKPKDTLMISRTPEVTCVVVDVSHEDPEVKFNWYVDGVEVHNAKTKPREEQYNSTYRVVSVLTVLHQDWLNGKEYKCKVSNKALPSSIEKTISKAKGQPREPQVYTLPPSREEMTKNQVSLTCLVKGFYPSDIAVEWESNGQPENNYKTTPPVLDSDGSFFLYSKLTVDKSRWQQGNVFSCSVMHEALHNHYTQKSLSLSPG | – | – | – | – | – | 2.1 | 2300 | no binding | no binding | no binding | – | –
D134 (Fc fusion, not shown: hinge; copies: 2 + 2) chain (part 1 of 2): EVQLVESGGGEVQPGGSLRLSCAASGSIFSINAMGWYRQAPGKQRELVAGFTGDTNTIYAESVKGRFTISRDNAKNTVYLQMSSLRAEDTAVYYCAADVQLFSRDYEFYWGQGTLVTVKP chain (part 2 of 2): APEAEGAPSVFLFPPKPKDTLMISRTPEVTCVVVDVSHEDPEVKFNWYVDGVEVHNAKTKPREEQYNSTYRVVSVLTVLHQDWLNGKEYKCKVSNKALPSSIEKTISKAKGQPREPQVYTLPPSREEMTKNQVSLTCLVKGFYPSDIAVEWESNGQPENNYKTTPPVLDSDGSFFLYSKLTVDKSRWQQGNVFSCSVMHEALHNHYTQKSLSLSPG | – | – | – | – | – | 1.9 | 460 | no binding | – | no binding | 1100 | no binding
D138 (Fc fusion, not shown: hinge; copies: 2 + 2) chain (part 1 of 2): EVQLVESGGGEVQPGGSLRLSCAASGSIFSINAMGWYRQAPGKQRELVAGFTGDTNTIYAESVKGRFTISRDNAKNTVYLQMSSLRAEDTAVYYCAADVQLFSRDYEFYWGQGTLVTVKP chain (part 2 of 2): APEAEGAPSVFLFPPKPKDTLMISRTPEVTCVVVDVSHEDPEVKFNWYVDGVEVHNAKTKPREEQYNSTYRVVSVLTVLHQDWLNGKEYKCKVSNKALPSSIEKTISKAKGQPREPQVYTLPPSREEMTKNQVSLTCLVKGFYPSDIAVEWESNGQPENNYKTTPPVLDSDGSFFLYSKLTVDKSRWQQGNVFSCSVMHEALHNQYTQKSLSLSPG | – | – | – | – | – | – | 520 | no binding | – | no binding | 770 | –
H137 (Fc fusion, not shown: hinge; copies: 2 + 2) chain (part 1 of 2): QVQLQESGGGSVQAGGSLKLTCAASGYIFNSCGMGWYRQSPGRERELVSRISGDGDTWHKESVKGRFTISQDNVKKTLYLQMNSLKPEDTAVYFCAVCYNLETYWGQGTQVTVSS chain (part 2 of 2): APEAEGAPSVFLFPPKPKDTLMISRTPEVTCVVVDVSHEDPEVKFNWYVDGVEVHNAKTKPREEQYNSTYRVVSVLTVLHQDWLNGKEYKCKVSNKALPSSIEKTISKAKGQPREPQVYTLPPSREEMTKNQVSLTCLVKGFYPSDIAVEWESNGQPENNYKTTPPVLDSDGSFFLYSKLTVDKSRWQQGNVFSCSVMHEALHNQYTQKSLSLSPG | – | – | – | – | – | – | 1200 | no binding | no binding | no binding | – | no binding
H135 (Fc fusion, not shown: hinge; copies: 2 + 2) chain (part 1 of 2): QVQLQESGGGSVQAGGSLKLTCAASGYIFNSCGMGWYRQSPGRERELVSRISGDGDTWHKESVKGRFTISQDNVKKTLYLQMNSLKPEDTAVYFCAVCYNLETYWGQGTQVTVSS chain (part 2 of 2): APEAEGAPSVFLFPPKPKDTLMISRTPEVTCVVVDVSHEDPEVKFNWYVDGVEVHNAKTKPREEQYNSTYRVVSVLTVLAQDWLNGKEYKCKVSNKALPSSIEKTISKAKGQPREPQVYTLPPSREEMTKNQVSLTCLVKGFYPSDIAVEWESNGQPENNYKTTPPVLDSDGSFFLYSKLTVDKSRWQQGNVFSCSVMHEALHNHYTQKSLSLSPG | – | – | – | – | – | – | 1200 | no binding | no binding | no binding | – | no binding
D136 (Fc fusion, not shown: hinge; copies: 2 + 2) chain (part 1 of 2): EVQLVESGGGEVQPGGSLRLSCAASGSIFSINAMGWYRQAPGKQRELVAGFTGDTNTIYAESVKGRFTISRDNAKNTVYLQMSSLRAEDTAVYYCAADVQLFSRDYEFYWGQGTLVTVKP chain (part 2 of 2): APEAEGAPSVFLFPPKPKDTLMISRTPEVTCVVVDVSHEDPEVKFNWYVDGVEVHNAKTKPREEQYNSTYRVVSVLTVLAQDWLNGKEYKCKVSNKALPSSIEKTISKAKGQPREPQVYTLPPSREEMTKNQVSLTCLVKGFYPSDIAVEWESNGQPENNYKTTPPVLDSDGSFFLYSKLTVDKSRWQQGNVFSCSVMHEALHNHYTQKSLSLSPG | – | – | – | – | – | – | 570 | no binding | – | no binding | 2200 | no binding

Further lines, results first:

EC50 (read off the curve) [1] [nM] | binding result [2] | binding result [3] | binding result [4] | binding result [5] | Kd [6] [nM] | Kd [7] [nM] | binding result [8] | binding result [9] | binding result [10] | Kd [11] [nM] | binding result [12] | Binder
~3 | binds | binds | – | – | – | – | – | – | – | – | – | Anti-FOLR1x2; Anti-DLL3x2; (GGS)3 tetramer (bispecific antibody, As m61 with the (GGS)3 linker; also called bispecific tetramer GGSx3; not shown: hinge) chain (part 1 of 2): QVQLVESGGGLVQPGGSLRLSCAASGFTVSNSVMAWYRQTPGNEREFVAIINSIGITNYADSVKGRFTISRDNSKNTLYLQMNSLRAEDTAVYVCNRNFDRIYWGQGTLVTVSSGGSGGSGGSEVQLVESGGGEVQPGGSLRLSCAASGSIFSINAMGWYRQAPGKQRELVAGFTGDTNTIYAESVKGRFTISRDNAKNTVYLQMSSLRAEDTAVYYCAADVQLFSRDYEFYWGQGTLVTVKP chain (part 2 of 2): not shown
– | binds | binds | binds | binds | – | – | – | – | – | – | – | Anti-FOLR1x2; Anti-DLL3x2; (GGGGS)3 tetramer (bispecific antibody, entry chosen by mutation status; also called bispecific tetramer GGGGSx3; not shown: hinge) chain (part 1 of 2): QVQLVESGGGLVQPGGSLRLSCAASGFTVSNSVMAWYRQTPGNEREFVAIINSIGITNYADSVKGRFTISRDNSKNTLYLQMNSLRAEDTAVYVCNRNFDRIYWGQGTLVTVSSGGGGSGGGGSGGGGSEVQLVESGGGEVQPGGSLRLSCAASGSIFSINAMGWYRQAPGKQRELVAGFTGDTNTIYAESVKGRFTISRDNAKNTVYLQMSSLRAEDTAVYYCAADVQLFSRDYEFYWGQGTLVTVKP chain (part 2 of 2): not shown
– | binds | binds | binds | binds | – | – | – | – | – | – | – | Anti-FOLR1x2; Anti-DLL3x2; (GGS)4 tetramer (bispecific antibody, As m61 with the (GGS)4 linker; also called bispecific tetramer GGSx4; not shown: hinge) chain (part 1 of 2): QVQLVESGGGLVQPGGSLRLSCAASGFTVSNSVMAWYRQTPGNEREFVAIINSIGITNYADSVKGRFTISRDNSKNTLYLQMNSLRAEDTAVYVCNRNFDRIYWGQGTLVTVSSGGSGGSGGSGGSEVQLVESGGGEVQPGGSLRLSCAASGSIFSINAMGWYRQAPGKQRELVAGFTGDTNTIYAESVKGRFTISRDNAKNTVYLQMSSLRAEDTAVYYCAADVQLFSRDYEFYWGQGTLVTVKP chain (part 2 of 2): not shown
